Measured values as given in patent US20240373849A1, “INSECT NEUROPEPTIDE ANALOGUES” (THE UNIVERSITY COURT OF THE UNIVERSITY OF GLASGOW, priority 2020, published 2024).
“And” between values parts separate entries of the source, which are not always exact repeats. Equal values may be shown once. Square brackets hold non-standard residues; d marks the D form. * marks the point of attachment. Guanidyl = -C(=N+Me2)NMe2 on the N-terminal amine (tetramethylguanidyl cap), CN(C)C(=[N+](C)C)*; NMeV = CN[C@H](C(=O)O)C(C)C

Assays:
[1] = system: Drosophila suzukii larvae; assay: Drosophila suzukii larval feeding (Example 8; peptide screening); format: in vivo
M. persicae [2] = assay: Feeding of aphids with peptides in artificial diet (Example 1); format: in vivo, Myzus persicae; details: 10^−5 M
Method: A standard artificial diet for M. persicae was produced as described in Van Emden (2009) and provided the basal diet to which peptides were added for screening purposes. Peptides were diluted individually in the artificial diet to a pre-determined concentration.
Feeding apparatus were constructed using a set-up developed by Sadeghi et al (2009). For this, a piece of Parafilm was stretched over a Plexiglas ring (h=4 cm, Ø=3 cm) and 100 μl of the artificial diet containing the desired neuropeptide analogue was pipette onto the Parafilm membrane. A second piece of Parafilm, stretched to 4 times the original thickness, was stretched over the original layer, sandwiching the artificial diet between two layers of Parafilm. A strip of Parafilm was wrapped around the circumference of the Plexiglas ring, sealing in the diet. A plastic ring (h=1.2 cm, Ø=3.4 cm) was subsequently placed over the Parafilm layer, creating a walled chamber in which to house test aphids in contact with the Parafilm layer containing the artificial diet. Finally, a small Petri dish (h=1 cm, Ø=3.6 cm), modified for ventilation with net cloth, was placed on top of each feeding apparatus to prevent aphid escape.
To obtain aphids for use in experiments, reproducing anholocyclic adults were placed on individual excised leaves of Chinese cabbage at densities of 5 adults per leaf and allowed to reproduce for 24 h. The stem of each excised leaf was held within a 0.5 mL Eppendorf tube containing water via a punctured hole in the Eppendorf lid, and placed individually within a microcage (L=4 cm, Ø=9.5 cm). Following 24h, adults were removed and resultant first instar nymphs (<1 day old and synchronised in age to within 24h) retained. Nymphs were allowed to develop on the Chinese cabbage for 5 days. On day 5, (3rd instar) nymphs were transferred onto the artificial diet containing a neuropeptide analogue at densities of 1 per feeding chamber and monitored daily until death. Aphids were transferred to fresh artificial diet (containing neuropeptide analogue or water control) every 5 days.
The water control group was used to determine baseline lethality. Results for neuropeptide analogues were calculated as % lethality in the remaining population after adjustment for the baseline.

M. persicae [3] = assay: Feeding of aphids with peptides in artificial diet (Example 2; peptide screening, honeydew); format: in vivo, Myzus persicae; details: Peptide screening, Table 5
Description: First to Fourth generations of peptides were produced with varying structures and tested for CAPA receptor agonist activity, and screened for lethality in vivo against D. suzukii and M. persicae as per methods in example 2 and example 8. The top performing peptides were selected and gave rise to the list of CAPA1 and CAPA2 peptides provided above in Table 1 which were then further tested in the following applied examples.
The aphid feeding protocol was devised according to Sadeghi et al (2009) as explained in example 1. Feeding discs were designed and manufactured as above. A standard sucrose-based artificial diet for M. persicae (30 aphids per chamber, 3 chambers per experiment unless otherwise stated) was produced as described in example 1 (Sadeghi et al, J. Insect Science, 2009) and provided the basal diet to which peptides were added for screening purposes. Peptides were diluted individually in the artificial diet to 10^−5 M. Lethality was scored after up to 120 hours (IRAC guidelines for aphid testing).
Membrane discs were also included to collect ‘honeydew’ secreted by feeding aphids and stained with ninhydrin to observe feeding patterns.
Comparison of purple stain in controls to treated aphids, show there is very little colour on many membranes where peptides were added.
Capa peptides cause mortality in M. persicae via feeding: At 120 hours, AH383 and AH387 peptides induce ˜60% mean (and median) lethality. Although mean lethality is lower with AH270/PEGAH270 (40%), 100% lethality is observed in one sample of 30 insects (AH270); and 90% in at least one sample of each of AH383, AH387 and PEGAH270 (FIG. 3). Note that PEGAH270 is a pegylated form of peptide AH270.

Myzus persicae aphids = assay: Topical application by spraying, Potter Spray Tower (Example 3); format: in vivo; details: 48 hours post spray
Method: Aphids were exposed to test peptides in the absence of additional external stress conditions.
Brassica rapa (Chinese cabbage; Wong Bok) were infested with 30 adult Myzus persicae aphids per plant. Aphids were left at least 2 hours to settle and begin feeding from the host plant.
Potter Spray Tower (Burkard Manufacturing) was ‘primed’ by spraying 1000 μl of liquid coating the inside of the tower. Vehicle spray only (Croda ATPlus UEP 100 LQ-(CQ) 0.1% v/v) was used as a control.
Spray volumes for all solutions were 3000 μl. […] After spraying was completed the plant was allowed to rest on the spray platform for 30 seconds to allow settling of the sprayed chemical.
Post peptide application, each condition was placed into its own individual Bugdorm (Watkins and Doncaster, 44545), to prevent repulsed or displaced aphids moving from one condition to another. Numbers of alive and dead aphids on the plant were counted 48 hours post spray, and the presence of any fresh nymphs noted. Plants were watered prior to spraying but not afterwards to eliminate the possibility of drowning any aphids present or washing off the sprayed liquid.
The vehicle control group was used to determine baseline lethality. Results for neuropeptide analogues were calculated as % lethality in the remaining population after adjustment for the baseline.

[4] = system: aminopeptidase, endopeptidase, carboxypeptidase; format: in vitro ADME
Method: (§1) Enzyme digests were performed using aminopeptidase, endopeptidase, carboxypeptidase, or Drosophila melanogaster Malpighian tubule tissue extract. Peptide digests were performed in triplicate alongside ‘mock’ digests, where protease was substituted with water to determine peptide stability in aqueous media at 37° C. Several peptides were tested, including 1st generation AH56 and 3rs generation AH259. These are biostable in the presence of purified proteases for >24 hours; and for >3 hours to insect tissue extracts which are enriched for proteases.

[5] = format: in vitro ADME, Drosophila melanogaster
Method: as §1

[6] = system: bumblebees (Bombus terrestris); assay: Bumblebee acute oral toxicity test; format: in vivo
Method: Oral toxicity against bumblebees (Bombus terrestris) was determined as previously described:
OECD (2017), Test No. 247: Bumblebee, Acute Oral Toxicity Test, OECD Guidelines for the Testing of Chemicals, Section 2, OECD Publishing, Paris, https://doi.org/10.1787/9789264284128-en.
Example data are provided for peptides, AH56, AH257, AH259 in Tables 4, 5 below. […]
Data were acquired for: feeding behaviour—weight of liquid consumed pre- and post-treatment; lethality (days).
There was no negative impact on feeding behaviour from capa peptides. Acute bumblebee toxicity was also assessed for other peptide candidates including: AH270, PEG270. Overall, capa peptides are bee safe.

[7] = molecular target: T1, Drosophila melanogaster capa GPCR, capaR (Drosophila melanogaster, UniProt Q8ITC7 1-477); assay: cell-based or functional assay
T1 sequence (looked up): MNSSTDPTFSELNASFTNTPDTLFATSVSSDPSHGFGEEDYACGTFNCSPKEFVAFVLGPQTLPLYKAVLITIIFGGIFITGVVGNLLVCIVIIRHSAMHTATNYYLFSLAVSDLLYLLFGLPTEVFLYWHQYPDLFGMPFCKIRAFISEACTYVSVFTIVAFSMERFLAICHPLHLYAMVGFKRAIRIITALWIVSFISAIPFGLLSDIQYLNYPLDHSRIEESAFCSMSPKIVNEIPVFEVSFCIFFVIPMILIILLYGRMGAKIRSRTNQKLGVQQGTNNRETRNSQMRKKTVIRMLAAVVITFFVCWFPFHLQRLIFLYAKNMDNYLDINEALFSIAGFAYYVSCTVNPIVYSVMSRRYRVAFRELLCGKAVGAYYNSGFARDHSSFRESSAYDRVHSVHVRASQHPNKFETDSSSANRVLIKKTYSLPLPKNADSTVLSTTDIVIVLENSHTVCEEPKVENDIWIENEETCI

[8] = Table 12, individual bees, 20% sucrose 0.1% ATPlus AH56
[9] = Table 12, 20% sucrose 0.1% ATPlus AH56

For H-Ahx-LVAFPRV-NH2 [AH56], which “Feeding D. suzukii, % lethality in population after adjustment for baseline” value ([1]; 10^−5 M, 48 hr exposure) is on record?
The value was 51%.

What about the “D. suzukii (Mean% Lethality ± SD)” value ([1]; Peptide screening, Table 5, blank control 20.33) of the same molecule?
Its value is 50.63%.

And the “Feeding Aphid, % lethality in population after adjustment for baseline” value (M. persicae [2])?
Its value is 30%.

And the “M. persicae (% Lethality)” value (M. persicae [3])?
Its value is 30%.

What about the “Spray Aphid, % lethality in population after adjustment for baseline” value (Myzus persicae aphids; 10^−4 M) of the same molecule?
Its value is 41%.

And the “Spray Aphid, % lethality in population after adjustment for baseline” value (Myzus persicae aphids; 10^−5 M)?
Its value is 35%.

What about the “biostable in the presence of purified proteases” value [4] of the same molecule?
The value was greater than 24 h.

What about the “biostable to insect tissue extracts enriched for proteases” value [5] of the same molecule?
Its value is greater than 3 h.

And the “lethal effect on bumblebees” value ([6]; 1×10^−5 M in 50% sucrose, 0.1% ATPlus, oral)?
The value was “No lethal effect”.

And the Volume remaining [6, 8]?
The Volume remaining was 211 ul (2×) and 295 ul (2×) and 248 ul (2×) and 216 ul (2×) and 178 ul (2×).

And the Volume removed [6, 8]?
Its Volume removed is 289 and 205 and 252 and 284 and 322.

What about the “Volume remaining, group mean” value [6, 9] of the same molecule?
The value was 229.6 µL.

And the “Volume removed, group mean” value [6, 9]?
The value was 270.4.

What about the “safety towards B. terrestris in the bumblebee oral toxicity assay” value ([6]; in vivo, po) of the same molecule?
The value was “safe”.

B1: AH257 (Guanidyl-LVAFPR-(Me)V-NH2) (peptide)
peptide: Guanidyl-LVAFPR[NMeV]-NH2
SMILES: CC(C)C[C@H](NC(N(C)C)=[N+](C)C)C(=O)N[C@H](C(=O)N[C@@H](C)C(=O)N[C@@H](Cc1ccccc1)C(=O)N1CCC[C@H]1C(=O)N[C@@H](CCCNC(=N)N)C(=O)N(C)[C@H](C(N)=O)C(C)C)C(C)C
For B1, which “CapaR Ca^2+ Agonist response at 10^-7 M” value [7] is on record?
Its value is 85 % of native Capa2 activity.

B2: AH259 (Guanidyl-L-(Me)V-AFPRV-NH2) (peptide)
peptide: Guanidyl-L[NMeV]AFPRV-NH2
SMILES: CC(C)C[C@H](NC(N(C)C)=[N+](C)C)C(=O)N(C)[C@H](C(=O)N[C@@H](C)C(=O)N[C@@H](Cc1ccccc1)C(=O)N1CCC[C@H]1C(=O)N[C@@H](CCCNC(=N)N)C(=O)N[C@H](C(N)=O)C(C)C)C(C)C
With B2 as the molecule, how does the “CapaR Ca^2+ Agonist response at 10^-7 M” value [7] read?
Its value is 12 % of native Capa2 activity.
